Laboratory results as given in paper PMC5180592 (Science (New York, N.Y.), 2015).

B2: Nup85 (natural protein, S. cerevisiae, UniProt P46673 1-744, looked up)
chain: MTIDDSNRLLMDVDQFDFLDDGTAQLSNNKTDEEEQLYKRDPVSGAILVPMTVNDQPIEKNGDKMPLKFKLGPLSYQNMAFITAKDKYKLYPVRIPRLDTSKEFSAYVSGLFEIYRDLGDDRVFNVPTIGVVNSNFAKEHNATVNLAMEAILNELEVFIGRVKDQDGRVNRFYELEESLTVLNCLRTMYFILDGQDVEENRSEFIESLLNWINRSDGEPDEEYIEQVFSVKDSTAGKKVFETQYFWKLLNQLVLRGLLSQAIGCIERSDLLPYLSDTCAVSFDAVSDSIELLKQYPKDSSSTFREWKNLVLKLSQAFGSSATDISGELRDYIEDFLLVIGGNQRKILQYSRTWYESFCGFLLYYIPSLELSAEYLQMSLEANVVDITNDWEQPCVDIISGKIHSILPVMESLDSCTAAFTAMICEAKGLIENIFEGEKNSDDYSNEDNEMLEDLFSYRNGMASYMLNSFAFELCSLGDKELWPVAIGLIALSATGTRSAKKMVIAELLPHYPFVTNDDIEWMLSICVEWRLPEIAKEIYTTLGNQMLSAHNIIESIANFSRAGKYELVKSYSWLLFEASCMEGQKLDDPVLNAIVSKNSPAEDDVIIPQDILDCVVTNSMRQTLAPYAVLSQFYELRDREDWGQALRLLLLLIEFPYLPKHYLVLLVAKFLYPIFLLDDKKLMDEDSVATVIEVIETKWDDADEKSSNLYETIIEADKSLPSSMATLLKNLRKKLNFKLCQAFM

Key:
[1] = target: T1, Nup120 (S. cerevisiae, UniProt P35729 1-1037); assay: SEC
T1 sequence: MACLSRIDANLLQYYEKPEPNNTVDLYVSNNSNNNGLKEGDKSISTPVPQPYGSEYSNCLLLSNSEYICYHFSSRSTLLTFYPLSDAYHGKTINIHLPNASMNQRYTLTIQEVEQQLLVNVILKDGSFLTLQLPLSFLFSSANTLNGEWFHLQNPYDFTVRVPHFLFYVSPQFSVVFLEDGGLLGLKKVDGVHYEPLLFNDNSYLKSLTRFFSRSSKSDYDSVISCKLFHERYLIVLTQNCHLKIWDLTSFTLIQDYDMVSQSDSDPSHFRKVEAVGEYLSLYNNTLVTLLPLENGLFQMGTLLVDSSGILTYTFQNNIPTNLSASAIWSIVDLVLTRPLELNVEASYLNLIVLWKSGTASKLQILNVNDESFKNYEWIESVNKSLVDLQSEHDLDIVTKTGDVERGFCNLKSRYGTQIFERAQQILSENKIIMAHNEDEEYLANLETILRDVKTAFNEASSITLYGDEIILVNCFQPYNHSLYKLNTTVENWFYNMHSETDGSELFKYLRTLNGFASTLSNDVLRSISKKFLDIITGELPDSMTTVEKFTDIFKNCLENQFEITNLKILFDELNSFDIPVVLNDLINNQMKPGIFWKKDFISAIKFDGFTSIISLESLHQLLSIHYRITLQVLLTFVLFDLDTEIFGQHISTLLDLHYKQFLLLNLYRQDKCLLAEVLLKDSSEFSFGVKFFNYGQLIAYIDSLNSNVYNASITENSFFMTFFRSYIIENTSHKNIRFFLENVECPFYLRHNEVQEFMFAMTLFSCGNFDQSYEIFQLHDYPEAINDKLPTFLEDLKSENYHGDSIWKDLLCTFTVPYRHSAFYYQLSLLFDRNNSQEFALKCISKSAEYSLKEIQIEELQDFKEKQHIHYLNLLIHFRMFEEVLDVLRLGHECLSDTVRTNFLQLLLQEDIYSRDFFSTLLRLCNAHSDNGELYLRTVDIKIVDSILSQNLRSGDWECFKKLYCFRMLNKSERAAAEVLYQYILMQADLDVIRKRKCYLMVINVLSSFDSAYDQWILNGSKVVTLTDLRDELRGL

[2] = target: T1, Nup120; assay: crystal structure
[3] = target: B2; assay: crystal structure
[4] = target: Nup85 (S. cerevisiae, UniProt P46673); assay: crystal structure
[5] = target: Nup145C (S. cerevisiae, UniProt P49687); assay: crystal structure
Sequence of Nup145C (P49687 680-1317): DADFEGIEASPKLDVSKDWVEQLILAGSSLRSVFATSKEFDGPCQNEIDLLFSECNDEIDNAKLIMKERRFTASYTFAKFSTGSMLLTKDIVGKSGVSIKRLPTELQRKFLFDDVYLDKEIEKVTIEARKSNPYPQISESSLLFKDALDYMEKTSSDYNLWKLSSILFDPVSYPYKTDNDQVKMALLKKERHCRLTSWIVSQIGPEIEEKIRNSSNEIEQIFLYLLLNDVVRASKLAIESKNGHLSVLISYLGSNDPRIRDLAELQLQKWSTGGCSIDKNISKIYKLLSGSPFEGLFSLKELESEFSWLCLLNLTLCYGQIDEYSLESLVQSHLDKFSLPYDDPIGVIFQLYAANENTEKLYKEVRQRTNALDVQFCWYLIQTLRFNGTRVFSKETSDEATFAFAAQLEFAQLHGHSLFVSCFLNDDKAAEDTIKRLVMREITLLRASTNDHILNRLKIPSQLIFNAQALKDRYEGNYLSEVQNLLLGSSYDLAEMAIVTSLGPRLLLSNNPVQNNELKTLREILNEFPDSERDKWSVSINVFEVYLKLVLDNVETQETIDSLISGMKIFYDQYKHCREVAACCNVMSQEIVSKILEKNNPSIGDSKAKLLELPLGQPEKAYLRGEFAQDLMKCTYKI

B1: Nup85 C-terminal domain (domain or fragment, S. cerevisiae, UniProt P46673 545-744, looked up)
chain: QMLSAHNIIESIANFSRAGKYELVKSYSWLLFEASCMEGQKLDDPVLNAIVSKNSPAEDDVIIPQDILDCVVTNSMRQTLAPYAVLSQFYELRDREDWGQALRLLLLLIEFPYLPKHYLVLLVAKFLYPIFLLDDKKLMDEDSVATVIEVIETKWDDADEKSSNLYETIIEADKSLPSSMATLLKNLRKKLNFKLCQAFM
[1]
  binding result: binds

## B2
[2]
  binding result: binds

B3: Seh1 (natural protein, S. cerevisiae)
chain: MQPFDSGHDDLVHDVVYDFYGRHVATCSSDQHIKVFKLDKDTSNWELSDSWRAHDSSIVAIDWASPEYGRIIASASYDKTVKLWEEDPDQEECSGRRWNKLCTLNDSKGSLYSVKFAPAHLGLKLACLGNDGILRLYDALEPSDLRSWTLTSEMKVLSIPPANHLQSDFCLSWCPSRFSPEKLAVSALEQAIIYQRGKDGKLHVAAKLPGHKSLIRSISWAPSIGRWYQLIATGCKDGRIRIFKITEKLSPLASEESLTNSNMFDNSADVDMDAQGRSDSNTEEKAELQSNLQVELLSEHDDHNGEVWSVSWNLTGTILSSAGDDGKVRLWKATYSNEFKCMSVITAQQ
[3]
  binding result: binds

B4: synthetic antibody sAB-57 (Fab, V domains shown)
VH: EVQLVESGGGLVQPGGSLRLSCAASGFNVSYSSIHWVRQAPGKGLEWVASIYPYYGSTSYADSVKGRFTISADTSKNTAYLQMNSLRAEDTAVYYCARTGMYFGFFHHSWSNAALDYWGQGTLVTVSS
VL: DIQMTQSPSSLSASVGDRVTITCRASQSVSSAVAWYQQKPGKAPKLLIYSASSLYSGVPSRFSGSRSGTDFTLTISSLQPEDFATYYCQQISQYPITFGQGTKVEIK
[4]
  binding result: binds
[5]
  binding result: binds
